Source: patent US20200392227A1 (LYVGEN BIOPHARMA, published 2020)

How the values were obtained:
[1] = target: T1, human FcRIIA protein (MednaBio, E1033) (human, UniProt P12318 34-218, limits assumed); experiment: BLI
T1 construct: Bought; also called FcγRIIA
T1 sequence (looked up): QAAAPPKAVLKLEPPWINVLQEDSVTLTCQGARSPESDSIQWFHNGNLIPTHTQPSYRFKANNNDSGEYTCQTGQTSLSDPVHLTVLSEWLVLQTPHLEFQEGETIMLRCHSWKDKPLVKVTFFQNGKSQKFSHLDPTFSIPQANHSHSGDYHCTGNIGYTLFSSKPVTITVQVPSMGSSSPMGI
How it was run: (§1)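 Binding was measured by biolayer interferometry on an Octet Red96 System. Commercial human Fc receptor proteins were loaded at 20 μg/mL onto anti-penta-HIS biosensors, which were then dipped into an 8-point 1:3 dilution series of test IgG starting at 300 nM in PBS with 0.1% BSA and 0.02% Tween-20, at pH 7.2 for Fcγ receptors and pH 6 for FcRn. Kd, kon and koff were obtained by global fitting, with data fitted to a 1:1 binding model.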

[2] = target: T2, human FcRI protein (MednaBio, E1031) (human, UniProt P12314 16-288, limits assumed); experiment: BLI
T2 construct: Bought; loaded on anti-penta-HIS biosensors; also called FcγRI
How it was run: as §1

[3] = target: T3, human FcRIIIB protein (MednaBio, E1037) (human, UniProt O75015 17-200); experiment: BLI
T3 construct: Bought; also called FcγRIIIB; FcgRIIIB
How it was run: as §1

[4] = target: T4, human FcRIIB/C protein (MednaBio, E1034) (human, UniProt P31994 43-217, limits assumed); experiment: BLI
T4 construct: Bought as FcRIIB/C; also called FcγRIIB; CD32B
T4 sequence (looked up): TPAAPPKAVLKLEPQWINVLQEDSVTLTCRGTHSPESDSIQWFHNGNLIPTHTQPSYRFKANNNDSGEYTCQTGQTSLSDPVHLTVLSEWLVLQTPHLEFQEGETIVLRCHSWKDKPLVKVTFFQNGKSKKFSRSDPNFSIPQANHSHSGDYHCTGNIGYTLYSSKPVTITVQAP
How it was run: as §1

[5] = target: T5, human FcRn protein (MednaBio, E1032) (human, UniProt P55899 24-297; P61769 21-119); experiment: BLI
T5 construct: Bought; assays at pH 6
How it was run: as §1

[6] = target: T6, human FcRIIIA-V158 protein (MednaBio, E1035) (human, UniProt P08637 17-208); experiment: BLI
T6 construct: Bought; also called FcγRIIIA(V); FcgRIIIA(V)
How it was run: as §1

[7] = target: T7, human FcRIIIA-F158 protein (MednaBio, E1036) (human, UniProt P08637 17-208); experiment: BLI
T7 construct: Bought; also called FcγRIIIA(F)
How it was run: as §1

[8] = target: T8, human FcγRI expressed on CHO cells (human, UniProt P12314 16-374); experiment: FACS, CHO cells expressing FcγRI
T8 construct: whole, on cells
Protocol: For FACS analysis of the IgG mutants' binding to different FcγRs, FcγR overexpressing CHO cells were harvested using trypsin-EDTA and were suspended in cold staining buffer (3% BSA in PBS). Test IgG mutants, which were diluted in staining buffer, were added into the cells. The mixture was incubated 4° C. for 2 hours, and then washed twice with cold staining buffer and re-suspended in PE-labeled anti-human IgG followed by incubation at 4° C. for 2 hours. The mixture was washed twice with staining buffer and re-suspended in 2% PFA in PBS for FACS.

T3 sequence (O75015 17-200 limits assumed): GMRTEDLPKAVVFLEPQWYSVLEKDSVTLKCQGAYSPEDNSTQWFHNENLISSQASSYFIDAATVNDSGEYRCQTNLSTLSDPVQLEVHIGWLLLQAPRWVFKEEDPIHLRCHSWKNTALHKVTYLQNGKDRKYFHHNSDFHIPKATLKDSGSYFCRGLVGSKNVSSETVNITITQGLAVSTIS
T2 sequence (P12314 16-288 limits assumed): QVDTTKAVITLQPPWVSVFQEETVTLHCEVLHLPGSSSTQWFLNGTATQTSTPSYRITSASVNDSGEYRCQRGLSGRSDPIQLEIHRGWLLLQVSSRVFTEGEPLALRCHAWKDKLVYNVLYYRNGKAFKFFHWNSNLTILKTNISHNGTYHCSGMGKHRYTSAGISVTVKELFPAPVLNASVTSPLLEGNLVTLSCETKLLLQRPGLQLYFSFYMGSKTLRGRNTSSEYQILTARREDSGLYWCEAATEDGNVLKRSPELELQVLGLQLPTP
T6 sequence (P08637 17-208 F176V): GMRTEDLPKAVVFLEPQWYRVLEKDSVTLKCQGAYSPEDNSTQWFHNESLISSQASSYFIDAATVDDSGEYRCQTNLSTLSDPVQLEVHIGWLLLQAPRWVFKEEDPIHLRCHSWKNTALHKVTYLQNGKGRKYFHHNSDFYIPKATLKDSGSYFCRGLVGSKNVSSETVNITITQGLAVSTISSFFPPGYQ
T7 sequence (P08637 17-208 limits assumed): as the sequence (P08637 17-208 F176V) above, with V160F counted along it
T5 sequence (P55899 24-297 limits assumed, form in doubt, chain 1 of 2): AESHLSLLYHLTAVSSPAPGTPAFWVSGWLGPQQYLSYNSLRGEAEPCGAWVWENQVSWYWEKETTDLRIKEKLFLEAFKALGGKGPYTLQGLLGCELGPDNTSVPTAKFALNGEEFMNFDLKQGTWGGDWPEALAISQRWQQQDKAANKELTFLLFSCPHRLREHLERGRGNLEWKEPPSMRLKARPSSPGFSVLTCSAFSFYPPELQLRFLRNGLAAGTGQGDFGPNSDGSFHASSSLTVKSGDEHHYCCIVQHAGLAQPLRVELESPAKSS
T5 sequence (P61769 21-119 limits assumed, form in doubt, chain 2 of 2): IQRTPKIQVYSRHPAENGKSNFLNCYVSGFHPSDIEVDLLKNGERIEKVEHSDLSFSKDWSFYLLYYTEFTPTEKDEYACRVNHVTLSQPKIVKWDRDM
T8 sequence (P12314 16-374): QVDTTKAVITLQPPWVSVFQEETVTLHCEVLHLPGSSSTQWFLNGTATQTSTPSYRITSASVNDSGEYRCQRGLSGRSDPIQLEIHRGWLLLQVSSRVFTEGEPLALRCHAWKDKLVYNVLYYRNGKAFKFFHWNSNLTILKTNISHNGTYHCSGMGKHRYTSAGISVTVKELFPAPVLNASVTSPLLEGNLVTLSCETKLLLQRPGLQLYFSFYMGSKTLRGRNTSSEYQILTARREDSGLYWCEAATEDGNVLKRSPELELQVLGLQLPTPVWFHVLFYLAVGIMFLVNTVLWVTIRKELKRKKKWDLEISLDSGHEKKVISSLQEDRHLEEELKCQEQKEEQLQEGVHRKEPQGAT

B1: anti-CD137 IgG2 with Fc variant G2m17 (antibody)
heavy: EVQLVQSGAEVKKPGESLRISCKGSGYSFSTYWISWVRQMPGKGLEWMGKIYPGDSYTNYSPSFQGQVTISADKSISTAYLQWSSLKASDTAMYYCARGYGIFDYWGQGTLVTVSSASTKGPSVFPLAPCSRSTSESTAALGCLVKDYFPEPVTVSWNSGALTSGVHTFPAVLQSSGLYSLSSVVTVPSSNFGTQTYTCNVDHKPSNTKVDKTVERKCCVECPPCPAPPVASVFLFPPKPKDTLMISRTPEVTCVVVDVEHEDPEVQFNWYVDGVEVHNAKTKPREEQFNSTFRVVSVLTVVHQDWLNGKEYKCKVSNKGLPAPIEKTISKTKGQPREPQVYTLPPSREEMTKNQVSLTCLVKGFYPSDIAVEWESNGQPENNYKTTPPMLDSDGSFFLYSKLTVDKSRWQQGNVFSCSVMHEALHNHYTQKSLSLSPGK
light: SYELTQPPSVSVSPGQTASITCSGDNIGDQYAHWYQQKPGQSPVLVIYQDKNRPSGIPERFSGSNSGNTATLTISGTQAMDEADYYCATYTGFGSLAVFGGGTKLTVLGQPKAAPSVTLFPPSSEELQANKATLVCLISDFYPGAVTVAWKADSSPVKAGVETTTPSKQSNNKYAASSYLSLTPEQWKSHRSYSCQVTHEGSTVEKTVAPTECS
notes: copies: 2 + 2
[1]
  Kd: 422 nM
  koff: 0.274 s⁻¹
  kon: 648000 M⁻¹ s⁻¹
[2]
  Kd: 253 nM
  koff: 0.277 s⁻¹
  kon: 1.09e+06 M⁻¹ s⁻¹
[3]
  Kd: 117 nM
  koff: 0.204 s⁻¹
  kon: 1.74e+06 M⁻¹ s⁻¹
[4]
  Kd: 236 nM
  koff: 0.0848 s⁻¹
  kon: 361000 M⁻¹ s⁻¹
[5]
  Kd: 7.46 nM
  koff: 0.0139 s⁻¹
  kon: 1.87e+06 M⁻¹ s⁻¹
[6]
  Kd: 153 nM
  koff: 0.205 s⁻¹
  kon: 1.34e+06 M⁻¹ s⁻¹
[7]
  Kd: 168 nM
  koff: 0.262 s⁻¹
  kon: 1.56e+06 M⁻¹ s⁻¹

B2: anti-CD137 IgG2 with Fc variant G2m20 (antibody)
heavy: EVQLVQSGAEVKKPGESLRISCKGSGYSFSTYWISWVRQMPGKGLEWMGKIYPGDSYTNYSPSFQGQVTISADKSISTAYLQWSSLKASDTAMYYCARGYGIFDYWGQGTLVTVSSASTKGPSVFPLAPCSRSTSESTAALGCLVKDYFPEPVTVSWNSGALTSGVHTFPAVLQSSGLYSLSSVVTVPSSNFGTQTYTCNVDHKPSNTKVDKTVERKCCVECPPCPAPPVAPSVFLFPPKPKDTLMISRTPEVTCVVVDVSHEDPEVQFNWYVDGVEVHNAKTKPREEQFNSTFRVVSVLTVVHQDWLNGKEYKCKVSNKGLPAPIEKTISKTKGQPREPQVYTLPPSREEMTKNQVSLTCLVKGFYPSDIAVEWESNGQPENNYKTTPPMLDSDGSFFLYSKLTVDKSRWQQGNVFSCSVMHEALHNHYTQKSLSLSPGK
light: SYELTQPPSVSVSPGQTASITCSGDNIGDQYAHWYQQKPGQSPVLVIYQDKNRPSGIPERFSGSNSGNTATLTISGTQAMDEADYYCATYTGFGSLAVFGGGTKLTVLGQPKAAPSVTLFPPSSEELQANKATLVCLISDFYPGAVTVAWKADSSPVKAGVETTTPSKQSNNKYAASSYLSLTPEQWKSHRSYSCQVTHEGSTVEKTVAPTECS
notes: copies: 2 + 2
[1]
  Kd: 829 nM
  koff: 0.0165 s⁻¹
  kon: 19900 M⁻¹ s⁻¹
[2]
  binding result: no binding (tested: 300 nM)
[3]
  binding result: no binding (tested: 300 nM)
[4]
  Kd: 517 nM
  koff: 0.0915 s⁻¹
  kon: 176000 M⁻¹ s⁻¹
[5]
  Kd: 57.6 nM
  koff: 0.0122 s⁻¹
  kon: 212000 M⁻¹ s⁻¹
[6]
  Kd: 1260 nM
  koff: 0.0149 s⁻¹
  kon: 11800 M⁻¹ s⁻¹
[7]
  Kd: 917 nM
  koff: 0.013 s⁻¹
  kon: 14300 M⁻¹ s⁻¹

B3: anti-CD137 IgG2 with Fc variant G2m19 (antibody)
heavy: EVQLVQSGAEVKKPGESLRISCKGSGYSFSTYWISWVRQMPGKGLEWMGKIYPGDSYTNYSPSFQGQVTISADKSISTAYLQWSSLKASDTAMYYCARGYGIFDYWGQGTLVTVSSASTKGPSVFPLAPCSRSTSESTAALGCLVKDYFPEPVTVSWNSGALTSGVHTFPAVLQSSGLYSLSSVVTVPSSNFGTQTYTCNVDHKPSNTKVDKTVERKCCVECPPCPAPPVASVFLFPPKPKDTLMISRTPEVTCVVVDVEHEDPEVQFNWYVDGVEVHNAKTKPREEQFNSTFRVVSVLTVVHQDWLNGKEYKCKVSNKGFPAPIEKTISKTKGQPREPQVYTLPPSREEMTKNQVSLTCLVKGFYPSDIAVEWESNGQPENNYKTTPPMLDSDGSFFLYSKLTVDKSRWQQGNVFSCSVMHEALHNHYTQKSLSLSPGK
light: SYELTQPPSVSVSPGQTASITCSGDNIGDQYAHWYQQKPGQSPVLVIYQDKNRPSGIPERFSGSNSGNTATLTISGTQAMDEADYYCATYTGFGSLAVFGGGTKLTVLGQPKAAPSVTLFPPSSEELQANKATLVCLISDFYPGAVTVAWKADSSPVKAGVETTTPSKQSNNKYAASSYLSLTPEQWKSHRSYSCQVTHEGSTVEKTVAPTECS
notes: copies: 2 + 2
[8]
  binding result: no binding (tested: 10 ug/mL)
[1]
  Kd: 336 nM
  koff: 0.0836 s⁻¹
  kon: 249000 M⁻¹ s⁻¹
[2]
  binding result: no binding (tested: 300 nM)
[3]
  binding result: no binding (tested: 300 nM)
[4]
  Kd: 240 nM
  koff: 0.0387 s⁻¹
  kon: 162000 M⁻¹ s⁻¹
[5]
  Kd: 35.4 nM
  koff: 0.00941 s⁻¹
  kon: 265000 M⁻¹ s⁻¹
[6]
  binding result: no binding (tested: 300 nM)
[7]
  binding result: no binding (tested: 300 nM)

B4: anti-CD137 IgG2 with Fc variant G2m28 (antibody)
heavy: EVQLVQSGAEVKKPGESLRISCKGSGYSFSTYWISWVRQMPGKGLEWMGKIYPGDSYTNYSPSFQGQVTISADKSISTAYLQWSSLKASDTAMYYCARGYGIFDYWGQGTLVTVSSASTKGPSVFPLAPCSRSTSESTAALGCLVKDYFPEPVTVSWNSGALTSGVHTFPAVLQSSGLYSLSSVVTVPSSNFGTQTYTCNVDHKPSNTKVDKTVERKCCVECPPCPAPPVAPSVFLFPPKPKDTLMISRTPEVTCVVVDVEHEDPEVQFNWYVDGVEVHNAKTKPREEQFNSTFRVVSVLTVVHQDWLNGKEYKCKVSNKGLPAPIEKTISKTKGQPREPQVYTLPPSREEMTKNQVSLTCLVKGFYPSDIAVEWESNGQPENNYKTTPPMLDSDGSFFLYSKLTVDKSRWQQGNVFSCSVMHEALHNHYTQKSLSLSPGK
light: SYELTQPPSVSVSPGQTASITCSGDNIGDQYAHWYQQKPGQSPVLVIYQDKNRPSGIPERFSGSNSGNTATLTISGTQAMDEADYYCATYTGFGSLAVFGGGTKLTVLGQPKAAPSVTLFPPSSEELQANKATLVCLISDFYPGAVTVAWKADSSPVKAGVETTTPSKQSNNKYAASSYLSLTPEQWKSHRSYSCQVTHEGSTVEKTVAPTECS
notes: also called Gbn28; copies: 2 + 2
[1]
  Kd: 191 nM
  koff: 0.0898 s⁻¹
  kon: 470000 M⁻¹ s⁻¹
[2]
  Kd: 66.1 nM
  koff: 0.098 s⁻¹
  kon: 1.49e+06 M⁻¹ s⁻¹
[3]
  binding result: no binding (tested: 300 nM)
[4]
  Kd: 256 nM
  koff: 0.0464 s⁻¹
  kon: 181000 M⁻¹ s⁻¹
[5]
  Kd: 26.4 nM
  koff: 0.0195 s⁻¹
  kon: 737000 M⁻¹ s⁻¹
[6]
  binding result: no binding (tested: 300 nM)
[7]
  Kd: 527 nM
  koff: 0.257 s⁻¹
  kon: 487000 M⁻¹ s⁻¹
